Reference: IntAct's records for PubMed 10376594

B1: Caspase-9 (Homo sapiens), P55211 (parent)
chain: MDEADRRLLRRCRLRLVEELQVDQLWDALLSRELFRPHMIEDIQRAGSGSRRDQARQLIIDLETRGSQALPLFISCLEDTGQDMLASFLRTNRQAAKLSKPTLENLTPVVLRPEIRKPEVLRPETPRPVDIGSGGFGDVGALESLRGNADLAYILSMEPCGHCLIINNVNFCRESGLRTRTGSNIDCEKLRRRFSSLHFMVEVKGDLTAKKMVLALLELAQQDHGALDCCVVVILSHGCQASHLQFPGAVYGTDGCPVSVEKIVNIFNGTSCPSLGGKPKLFFIQACGGEQKDHGFEVASTSPEDESPGSNPEPDATPFQEGLRTFDQLDAISSLPTPSDIFVSYSTFPGFVSWRDPKSGSWYVETLDDIFEQWAHSEDLQSLLLRVANAVSVKGIYKQMPGCFNFLRKKLFFKTS
B2: Apoptotic protease-activating factor 1 (Homo sapiens), O14727 (parent)
chain: MDAKARNCLLQHREALEKDIKTSYIMDHMISDGFLTISEEEKVRNEPTQQQRAAMLIKMILKKDNDSYVSFYNALLHEGYKDLAALLHDGIPVVSSSSGKDSVSGITSYVRTVLCEGGVPQRPVVFVTRKKLVNAIQQKLSKLKGEPGWVTIHGMAGCGKSVLAAEAVRDHSLLEGCFPGGVHWVSVGKQDKSGLLMKLQNLCTRLDQDESFSQRLPLNIEEAKDRLRILMLRKHPRSLLILDDVWDSWVLKAFDSQCQILLTTRDKSVTDSVMGPKYVVPVESSLGKEKGLEILSLFVNMKKADLPEQAHSIIKECKGSPLVVSLIGALLRDFPNRWEYYLKQLQNKQFKRIRKSSSYDYEALDEAMSISVEMLREDIKDYYTDLSILQKDVKVPTKVLCILWDMETEEVEDILQEFVNKSLLFCDRNGKSFRYYLHDLQVDFLTEKNCSQLQDLHKKIITQFQRYHQPHTLSPDQEDCMYWYNFLAYHMASAKMHKELCALMFSLDWIKAKTELVGPAHLIHEFVEYRHILDEKDCAVSENFQEFLSLNGHLLGRQPFPNIVQLGLCEPETSEVYQQAKLQAKQEVDNGMLYLEWINKKNITNLSRLVVRPHTDAVYHACFSEDGQRIASCGADKTLQVFKAETGEKLLEIKAHEDEVLCCAFSTDDRFIATCSVDKKVKIWNSMTGELVHTYDEHSEQVNCCHFTNSSHHLLLATGSSDCFLKLWDLNQKECRNTMFGHTNSVNHCRFSPDDKLLASCSADGTLKLWDATSANERKSINVKQFFLNLEDPQEDMEVIVKCCSWSADGARIMVAAKNKIFLFDIHTSGLLGEIHTGHHSTIQYCDFSPQNHLAVVALSQYCVELWNTDSRSKVADCRGHLSWVHGVMFSPDGSSFLTSSDDQTIRLWETKKVCKNSAVMLKQEVDVVFQENEVMVLAVDHIRRLQLINGRTGQIDYLTEAQVSCCCLSPHLQYIAFGDENGAIEILELVNNRIFQSRFQHKKTVWHIQFTADEKTLISSSDDAEIQVWNWQLDKCIFLRGHQETVKDFRLLKNSRLLSWSFDGTVKVWNIITGNKEKDFVCHQGTVLSCDISHDATKFSSTSADKTAKIWSFDLLLPLHELRGHNGCVRCSAFSVDSTLLATGDDNGEIRIWNVSNGELLHLCAPLSEEGAATHGGWVTDLCFSPDGKMLISAGGYIKWWNVVTGESSQTFYTNGTNLKKIHVSPDFKTYVTVDNLGILYILQTLE

Variants of: B1
Conditions: with apaf_human APAF1, O14727

| Variant | effect of a mutation on the interaction |
| --- | --- |
| R11A | decreasing interaction |
| R13A | disrupting interaction |

Next, values leading:

| effect of a mutation on the interaction | Variant |
| --- | --- |
| decreasing interaction | R52A |
| disrupting interaction | R56A |

Variants of: B2
Conditions: with casp9_human CASP9, P55211

| effect of a mutation on the interaction | Variant |
| --- | --- |
| disrupting interaction | E40A |
| disrupting interaction | D27A |
| decreasing interaction | S31A |
